From the supplement of paper PMC10567573

B1: SMOC2 (parent)
chain: DCAGSPQKPLCASDGRTFLSRCEF

Variants of: B1
Experiment: protein stability index of a GFP-peptide fusion (GPS, HEK-293T) (PSI 1-6); higher = more stable
Settings: c terminus: a fixed tail appended
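Also: lentivirally expressed fusions sorted by FACS into six bins by GFP to DsRed ratio, PSI derived from sequencing read proportions per bin multiplied by bin number.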

Protein stability index of substitutions, site by site:
A3: N 2.66; R 2.38; W 2.21; T 2.56; S 2.32; V 2.66; P 2.37; Y 2.02; K 2.89; L 2.73; Q 2.82
A12: L 2.56; S 4.06; I 2.5; Y 2.47; Q 3.1; M 2.7; F 1.89; W 1.51; G 2.29; D 2.88; E 3.96; N 2.94; H 2.18; C 1.59; P 3.11; V 2.97; R 2.14; T 3.32; K 2.59
F18: E 4.54; W 1.79; D 4.51; Y 3.09; P 4; L 4.12; A 3.52; I 3.4; C 3.73; K 4.09; S 3.83; V 2.84; R 3.84; Q 3.89; T 4; M 4.01; G 4.82; H 4.32; N 4.26
D14: A 2.52; W 1.89; V 2.6; N 2.47; F 1.81; Q 2.39; P 2.36; G 2.56; T 2.82; M 2; H 1.78; E 2.54; I 2.12; Y 2.26; S 3.19; R 2.03; L 2.2; K 2.4; C 1.6
C11: T 2.48; Q 2.82; N 2.67; L 3.3; F 1.8; S 3.19; H 2.73; E 3.46; R 2.28; A 2.7; I 2.56; M 3.23; P 3.47; V 2.66; G 2.04; K 2.72; W 2.41; D 3.79; Y 2.58
S5: W 2.46; Q 2.09; F 1.72; R 2.66; Y 2.68; N 2.78; A 2.94; M 2.52; V 2.76; T 2.24; P 2.72; K 2.72; L 2.46; C 2.24; D 2.96; I 2.14; E 2.56; G 3.07
L19: Q 2.49; I 2.07; W 2.34; Y 2.49; D 4.93; N 4.01; V 1.88; H 3.82; A 2.44; T 2.59; M 2.99; G 3.07; R 3.35; F 4.33; E 3.51; C 3.85; K 3.53; P 3.97; S 3.06
R21: I 1.67; K 2.67; F 2.02; C 2.44; D 4.14; E 3.62; A 2.71; H 3.26; G 4.57
S13: K 2.39; V 2.61; P 1.9; M 2.3; R 2.34; Q 2.58; I 3.88; A 3.39; T 2.91; Y 2.25; N 2.82; E 3.25; D 3.16; L 2.07; F 1.7; H 2.29; W 2.09; C 2.16; G 2.08
S20: R 3.23; L 3.1; P 3.59; G 2.17; F 1.25; N 3.64; I 3.04; V 3.04; H 2.68; K 3.04; C 2.86; M 1.41; E 2.93; D 4.1; Q 2.97; W 3.01; A 2.85; Y 1.9
R16: M 2.88; T 3.39; N 3.61; W 1.72; C 2.33; L 2.5; E 4.14; G 3.4; H 3.97; Y 2.33; V 2.77; F 1.35; Q 3.19; I 2.4; S 3.08; D 4.12; K 3.29; A 2.99; P 3.43
L10: N 2.08; I 2.63; H 3.54; D 3.29; V 2.28; S 2.97; G 3.23; R 2.48; K 3.1; C 2.85; A 2.92; F 1.82; W 2.16; Y 2.47; T 2.65; E 3.84; P 2.93; Q 4.04; M 2.56
T17: K 3.44; F 2.32; M 3.31; A 2.83; N 3.27; C 2.04; D 3.12; L 2.11; G 3.97; Y 2.77; P 3.4; I 2.33; V 2.22; H 3.45; Q 3.7; S 2.66; E 3.82; R 2.47; W 1.29
P6: D 2.46; N 2.66; Q 2.75; K 1.69; C 2.14; I 2.34; H 2.21; E 3.15; L 2.18; G 2.62; W 2.08; Y 2.62; V 1.8; T 2.53; F 1.76; S 3.39; A 1.73; R 2.19
G4: N 2.62; I 2.87; F 2.23; M 2.32; Y 2.22; R 2.08; L 2.56; W 2.32; S 2.24; H 3.44; A 2.77; T 3.2; V 2.47; D 4.36; K 2.65; P 2.56; Q 2.88; C 3.17; E 3.83
P9: K 1.85; C 2.65; F 1.99; A 3.42; I 2.04; S 3.08; V 2.4; D 2.97; E 2.72; R 2.77; G 2.73; Y 2.47; H 2.36; W 1.04; T 2.69; Q 3.13; M 2.63
K8: T 2.69; G 2.94; Y 1.9; N 2.3; M 2.23; I 2.68; E 2.17; S 2.34; V 2.13; D 3.33; L 2.41; W 2.46; R 2.83; C 2.18; Q 2.77; H 2.48; F 3.62
G15: T 2.65; V 2.03; M 2.81; E 4.05; Q 2.57; L 2.17; W 2.06; S 2.5; I 2.76; H 2.27; D 3.49; Y 2.81; K 2.3; P 3; R 2.83; C 1.99; N 3.01; F 2.42; A 4.08
Q7: W 2.55; M 2.73; D 2.94; I 1.83; N 1.96; H 2.1; C 2.26; T 2.46; L 2.11; V 2.39; F 1.75; Y 2.36; A 2.51; K 3.04; G 2.88; E 1.81; R 3.06
